{"source": "paper PMC6642127", "molecular_target": "P8 carrier peptide (Influenza H5N1)", "experiment": "AUC", "data": [{"substance": "P8 carrier peptide", "values": [{"measurement": "percent of the peptide as trimers", "value": 70, "unit": "%"}, {"measurement": "stoichiometry N", "value": 3}]}]}
